Legend:
[1] = tested on: alpha-synuclein (human); experiment: EMSA; conditions: 57 uM protein; 10% gel; N=3; EMSA: 20 ng DNA in 20 uL, 94 mM Tris-Cl pH 8.0, 25 mM NaCl, 1 mM EDTA, 5% ficoll; on ice 20 min then RT 30 min; 10% or 6% polyacrylamide TBE gel, 100 V …
[2] = tested on: S129-phospho-alpha-synuclein (human); experiment: EMSA; conditions: 57 uM stated for GST in the comparison; 10% gel; N=3; EMSA: 20 ng DNA in 20 uL, 94 mM Tris-Cl pH 8.0, 25 mM NaCl, 1 mM EDTA, 5% ficoll; on ice 20 min then RT 30 min; 10% or 6% polyacrylamide TBE gel, 100 V …

In the case of 300 bp dsDNA, the binding signal (fraction shifted) [1] is reported as 0.86 and the binding signal (fraction shifted) [2] is reported as 0.58.

Reference: paper PMC6662836
